Measurements from doi:10.1101/2024.09.19.613683 (bioRxiv, 2024).

B1: tail sheath protein of phage 812 (natural protein, Staphylococcus phage 812)
chain: MAVEPFPRRPITRPHASIEVDTSGIGGSAGSSEKVFCLIGQAEGGEPNTVYELRNYSQAKRLFRSGELLDAIELAWGSNPNYTAGRILAMRIEDAKPASAEIGGLKITSKIYGNVANNIQVGLEKNTLSDSLRLRVIFQDDRFNEVYDNIGNIFTIKYKGEEANATFSVEHDEETQKASRLVLKVGDQEVKSYDLTGGAYDYTNAIITDINQLPDFEAKLSPFGDKNLESSKLDKIENANIKDKAVYVKAVFGDLEKQTAYNGIVSFEQLNAEGEVPSNVEVEAGEESATVTATSPIKTIEPFELTKLKGGTNGEPPATWADKLDKFAHEGGYYIVPLSSKQSVHAEVASFVKERSDAGEPMRAIVGGGFNESKEQLFGRQASLSNPRVSLVANSGTFVMDDGRKNHVPAYMVAVALGGLASGLEIGESITFKPLRVSSLDQIYESIDLDELNENGIISIEFVRNRTNTFFRIVDDVTTFNDKSDPVKAEMAVGEANDFLVSELKVQLEDQFIGTRTINTSASIIKDFIQSYLGRKKRDNEIQDFPAEDVQVIVEGNEARISMTVYPIRSFKKISVSLVYKQQTLQA
B2: tail tube protein of phage 812 (natural protein, Staphylococcus phage 812)
chain: MASEAKQTVHTGNTVLLMIKGKPVGRAQSASGQREYGTTGVYEIGSIMPQEHVYLRYEGTITVERLRMKKENFADLGYASLGEEILKKDIIDILVVDNLTKQVIISYHGCSANNYNETWQTNEIVTEEIEFSYLTASDKART

Assays:
cryo-EM structure = biological target: the molecule itself; experiment: cryo-EM structure
[1] = biological target: B1; experiment: cryo-EM structure

Binder	binding result (cryo-EM structure)	binding result [1]
B1	binds	–
B2	–	binds
